Measured values taken from patent US20130156786A1 (Sanofi, published 2013).

Tests used:
[1] = biological target: T1, rat α2β1 integrin (whole blood) (rat, UniProt A0A0G2K470 27-1178; P49134 21-798); assay: FACS on whole blood, PE-coupled goat anti-mouse IgG
T1 construct: whole, on cells

[2] = biological target: dog α2β1 integrin (whole blood) (dog); assay: as above
[3] = biological target: rabbit α2β1 integrin (whole blood) (rabbit, UniProt G1T180 31-1185; A0A5F9C3C4 21-798); assay: as above
[4] = biological target: T2, mouse α2β1 integrin (whole blood) (mouse, UniProt Q62469 27-1178; P09055 21-798); assay: as above
T2 construct: whole, on cells

[5] = biological target: T3, α2 integrin on HUVEC cells; assay: MesoScale electrochemiluminescence binding to HUVEC cells coated on plates, serial dilutions of the mAb
T3 construct: The sheet names no target; also called HUVEC cells (promocell C12200, lot 6062203)
Experimental: (§1) To further assess the binding properties of the anti-α2 integrin mAb, a cell based assay with HUVEC cells (promocell C12200, lot 6062203) was performed. Cells were coated onto high binding plates (Meso Scale Discovery (MSD), L15XB-3) in PBS (10.000 cells/well) and incubated for 2 hrs at room temperature. Then the plates were emptied, washed twice with PBS and blocked with blocking solution (MSD, R93BA-4) for 90 min. After emptying and washing the plates again as described above, serial dilutions of anti α2-mAb were added and incubated with the cells for 1 h at room temperature. Following another washing step as above Read buffer T without surfactant (Meso scale Discovery, R92TD-2) was added. Electrochemilumenescence was read in a suitable device (Meso scale Discovery, Sector imager). Scatchard plot analysis was used to determine KD of the tested mAbs (see FIG. 1).

[6] = biological target: T3, α2 integrin on HUVEC cells; assay: Scatchard plot (B/F against B (RLU)) of MesoScale electrochemiluminescence binding to HUVEC cells coated on plates; drawn table: SD 0.01291, CV(%) 6.0, 95%CI [0.1899; 0.2425]
Experimental: as §1

T3 sequence (alpha, as listed by the source limits assumed): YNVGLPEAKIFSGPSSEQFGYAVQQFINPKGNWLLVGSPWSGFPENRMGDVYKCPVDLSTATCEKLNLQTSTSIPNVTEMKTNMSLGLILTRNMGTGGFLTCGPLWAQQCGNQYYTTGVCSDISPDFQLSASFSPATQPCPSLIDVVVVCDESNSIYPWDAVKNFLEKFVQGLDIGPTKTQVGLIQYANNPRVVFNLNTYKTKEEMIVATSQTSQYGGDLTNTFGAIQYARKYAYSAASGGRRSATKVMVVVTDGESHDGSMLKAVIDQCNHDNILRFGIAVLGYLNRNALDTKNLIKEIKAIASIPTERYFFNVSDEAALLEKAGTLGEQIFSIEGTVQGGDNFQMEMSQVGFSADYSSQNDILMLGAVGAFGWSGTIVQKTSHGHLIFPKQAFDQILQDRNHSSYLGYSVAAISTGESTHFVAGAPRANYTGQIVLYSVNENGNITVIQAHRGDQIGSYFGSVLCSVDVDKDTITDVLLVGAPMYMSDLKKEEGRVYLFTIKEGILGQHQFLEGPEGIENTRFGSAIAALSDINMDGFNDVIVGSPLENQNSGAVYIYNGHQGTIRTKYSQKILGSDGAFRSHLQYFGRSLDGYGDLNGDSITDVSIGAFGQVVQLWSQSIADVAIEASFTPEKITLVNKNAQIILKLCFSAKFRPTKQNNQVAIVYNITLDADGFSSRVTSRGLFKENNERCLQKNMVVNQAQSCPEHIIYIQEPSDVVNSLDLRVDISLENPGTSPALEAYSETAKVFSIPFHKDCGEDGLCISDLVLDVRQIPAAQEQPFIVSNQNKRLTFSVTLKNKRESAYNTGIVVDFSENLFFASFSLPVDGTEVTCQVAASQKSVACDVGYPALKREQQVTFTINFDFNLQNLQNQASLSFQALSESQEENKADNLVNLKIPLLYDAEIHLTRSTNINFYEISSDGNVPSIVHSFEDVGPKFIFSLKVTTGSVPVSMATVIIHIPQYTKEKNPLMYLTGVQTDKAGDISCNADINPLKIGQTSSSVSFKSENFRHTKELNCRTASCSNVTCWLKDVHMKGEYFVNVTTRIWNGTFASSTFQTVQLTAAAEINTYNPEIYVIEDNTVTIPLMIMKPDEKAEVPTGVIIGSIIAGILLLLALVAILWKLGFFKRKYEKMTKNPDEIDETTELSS
Sequence of dog α2β1 integrin (whole blood) (dog) (alpha, as listed by the source limits assumed, chain 1 of 2): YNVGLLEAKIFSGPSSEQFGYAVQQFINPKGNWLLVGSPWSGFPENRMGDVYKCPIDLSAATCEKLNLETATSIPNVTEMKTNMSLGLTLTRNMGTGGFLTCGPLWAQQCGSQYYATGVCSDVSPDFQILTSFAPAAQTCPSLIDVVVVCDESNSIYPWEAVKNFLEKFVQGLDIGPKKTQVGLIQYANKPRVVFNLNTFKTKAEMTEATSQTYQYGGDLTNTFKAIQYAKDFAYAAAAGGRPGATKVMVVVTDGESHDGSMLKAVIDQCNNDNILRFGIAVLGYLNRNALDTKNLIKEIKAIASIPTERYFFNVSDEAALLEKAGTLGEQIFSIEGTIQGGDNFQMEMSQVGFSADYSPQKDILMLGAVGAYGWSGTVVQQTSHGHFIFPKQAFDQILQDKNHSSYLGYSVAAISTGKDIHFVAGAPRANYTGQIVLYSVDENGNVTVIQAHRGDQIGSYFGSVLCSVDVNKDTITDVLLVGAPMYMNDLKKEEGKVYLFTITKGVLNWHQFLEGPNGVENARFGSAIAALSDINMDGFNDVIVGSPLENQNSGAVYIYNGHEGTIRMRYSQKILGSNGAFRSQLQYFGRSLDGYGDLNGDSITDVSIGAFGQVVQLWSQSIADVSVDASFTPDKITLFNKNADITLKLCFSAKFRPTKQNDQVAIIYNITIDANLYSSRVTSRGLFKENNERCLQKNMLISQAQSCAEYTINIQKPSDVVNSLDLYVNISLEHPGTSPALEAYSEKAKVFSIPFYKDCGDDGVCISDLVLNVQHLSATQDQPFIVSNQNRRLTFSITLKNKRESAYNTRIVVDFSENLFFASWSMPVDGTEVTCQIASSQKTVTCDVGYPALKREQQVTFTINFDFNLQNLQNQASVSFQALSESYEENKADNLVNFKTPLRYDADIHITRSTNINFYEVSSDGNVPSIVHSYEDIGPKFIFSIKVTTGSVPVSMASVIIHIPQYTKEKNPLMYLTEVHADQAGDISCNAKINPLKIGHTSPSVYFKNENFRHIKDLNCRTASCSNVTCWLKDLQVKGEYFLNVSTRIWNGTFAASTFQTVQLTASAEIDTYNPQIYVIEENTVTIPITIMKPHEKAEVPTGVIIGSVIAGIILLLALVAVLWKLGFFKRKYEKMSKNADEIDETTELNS
Sequence of dog α2β1 integrin (whole blood) (dog) (beta, as listed by the source limits assumed, chain 2 of 2): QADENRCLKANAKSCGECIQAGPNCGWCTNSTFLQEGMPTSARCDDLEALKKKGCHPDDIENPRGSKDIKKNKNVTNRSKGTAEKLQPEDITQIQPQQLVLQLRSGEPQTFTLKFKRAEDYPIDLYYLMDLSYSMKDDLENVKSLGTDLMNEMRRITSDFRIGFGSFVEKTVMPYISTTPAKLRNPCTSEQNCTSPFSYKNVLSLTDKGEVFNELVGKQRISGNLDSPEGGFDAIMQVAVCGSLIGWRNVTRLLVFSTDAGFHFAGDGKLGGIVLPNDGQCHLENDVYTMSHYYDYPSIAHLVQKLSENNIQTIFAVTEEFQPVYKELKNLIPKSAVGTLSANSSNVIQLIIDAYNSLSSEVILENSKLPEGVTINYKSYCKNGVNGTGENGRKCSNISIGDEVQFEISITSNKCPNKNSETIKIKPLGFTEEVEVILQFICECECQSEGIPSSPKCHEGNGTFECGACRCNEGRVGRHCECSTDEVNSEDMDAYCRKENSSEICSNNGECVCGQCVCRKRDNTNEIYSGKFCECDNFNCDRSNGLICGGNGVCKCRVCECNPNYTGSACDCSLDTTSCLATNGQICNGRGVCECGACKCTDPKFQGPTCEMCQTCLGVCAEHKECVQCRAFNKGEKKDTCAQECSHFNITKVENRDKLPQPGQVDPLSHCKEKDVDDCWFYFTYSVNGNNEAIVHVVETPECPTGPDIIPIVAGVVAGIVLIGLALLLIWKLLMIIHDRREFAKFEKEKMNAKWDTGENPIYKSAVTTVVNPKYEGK
Sequence of rabbit α2β1 integrin (whole blood) (alpha, as listed by the source limits assumed, chain 1 of 2): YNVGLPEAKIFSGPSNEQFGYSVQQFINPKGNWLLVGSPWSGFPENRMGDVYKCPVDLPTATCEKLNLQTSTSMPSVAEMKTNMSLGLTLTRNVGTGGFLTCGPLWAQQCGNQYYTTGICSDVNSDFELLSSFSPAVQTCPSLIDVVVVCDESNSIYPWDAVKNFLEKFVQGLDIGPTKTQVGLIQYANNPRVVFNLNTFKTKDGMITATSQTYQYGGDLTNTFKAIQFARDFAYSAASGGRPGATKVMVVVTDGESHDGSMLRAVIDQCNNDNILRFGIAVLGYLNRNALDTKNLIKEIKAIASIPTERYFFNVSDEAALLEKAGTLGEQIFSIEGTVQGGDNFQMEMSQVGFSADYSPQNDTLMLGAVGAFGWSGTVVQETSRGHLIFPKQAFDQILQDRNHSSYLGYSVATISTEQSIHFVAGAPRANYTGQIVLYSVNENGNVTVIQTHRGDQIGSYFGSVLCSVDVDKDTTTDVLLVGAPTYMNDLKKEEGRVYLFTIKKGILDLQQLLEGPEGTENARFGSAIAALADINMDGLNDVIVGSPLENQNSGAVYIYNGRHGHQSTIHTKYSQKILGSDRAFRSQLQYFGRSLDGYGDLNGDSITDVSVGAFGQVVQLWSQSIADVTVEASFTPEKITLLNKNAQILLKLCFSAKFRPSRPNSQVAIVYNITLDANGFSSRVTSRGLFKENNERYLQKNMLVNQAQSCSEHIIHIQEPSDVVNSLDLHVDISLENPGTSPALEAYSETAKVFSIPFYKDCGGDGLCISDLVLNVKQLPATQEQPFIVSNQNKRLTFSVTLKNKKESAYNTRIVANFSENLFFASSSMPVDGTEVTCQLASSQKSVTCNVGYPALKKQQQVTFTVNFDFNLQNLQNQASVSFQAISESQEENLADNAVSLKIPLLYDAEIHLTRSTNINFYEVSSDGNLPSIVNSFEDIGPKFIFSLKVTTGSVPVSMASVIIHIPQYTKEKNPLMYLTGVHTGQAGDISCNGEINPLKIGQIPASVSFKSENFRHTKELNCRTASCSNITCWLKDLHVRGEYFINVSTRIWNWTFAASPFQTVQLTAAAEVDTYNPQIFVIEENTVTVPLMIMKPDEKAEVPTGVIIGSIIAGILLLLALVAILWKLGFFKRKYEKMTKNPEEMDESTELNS
Sequence of rabbit α2β1 integrin (whole blood) (beta, as listed by the source limits assumed, chain 2 of 2): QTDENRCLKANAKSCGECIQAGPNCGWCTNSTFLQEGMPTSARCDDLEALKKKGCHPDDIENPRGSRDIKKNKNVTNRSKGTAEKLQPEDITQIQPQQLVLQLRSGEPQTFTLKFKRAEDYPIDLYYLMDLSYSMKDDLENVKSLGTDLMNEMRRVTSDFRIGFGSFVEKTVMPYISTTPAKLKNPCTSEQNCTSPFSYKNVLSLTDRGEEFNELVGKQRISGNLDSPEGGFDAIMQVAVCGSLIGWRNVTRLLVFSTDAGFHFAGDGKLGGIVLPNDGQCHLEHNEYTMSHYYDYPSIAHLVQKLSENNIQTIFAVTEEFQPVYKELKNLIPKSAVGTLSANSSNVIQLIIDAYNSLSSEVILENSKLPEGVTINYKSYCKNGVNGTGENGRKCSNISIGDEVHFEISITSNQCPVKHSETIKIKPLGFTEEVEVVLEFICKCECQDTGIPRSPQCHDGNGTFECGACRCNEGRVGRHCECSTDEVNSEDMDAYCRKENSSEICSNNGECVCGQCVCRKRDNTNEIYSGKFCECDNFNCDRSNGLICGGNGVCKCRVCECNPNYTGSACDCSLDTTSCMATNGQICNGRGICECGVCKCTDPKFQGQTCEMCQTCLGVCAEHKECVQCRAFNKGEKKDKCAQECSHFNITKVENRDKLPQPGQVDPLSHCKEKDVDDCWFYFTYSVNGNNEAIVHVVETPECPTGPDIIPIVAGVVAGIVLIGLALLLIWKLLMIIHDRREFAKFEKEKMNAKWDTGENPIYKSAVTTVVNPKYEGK

binding result [1]: no binding
binding result [2]: no binding
binding result [3]: no binding
binding result [4]: no binding
EC50 (read off the curve) [5]: ~0.2 nM
Kd [6]: 0.215 nM
B1: anti-α2 integrin mAb purified from hybridoma supernatant (murine, mCk, mIgG2a) (antibody)
heavy: QVQLHQPGAELVKPGAPVKLSCKASGYTFTSYWMNWVKQRPGRGLEWIGRIDPSDSETHYNQKFKDKATLTVDKSSSTAYIQLSSLTSEDSAVYYCAKVGRGYFDYWGQGTTLTVSSAKTTAPSVYPLAPVCGDTTGSSVTLGCLVKGYFPEPVTLTWNSGSLSSGVHTFPAVLQSDLYTLSSSVTVTSSTWPSQSITCNVAHPASSTKVDKKIEPRGPTIKPCPPCKCPAPNLLGGPSVFIFPPKIKDVLMISLSPIVTCVVVDVSEDDPDVQISWFVNNVEVHTAQTQTHREDYNSTLRVVSALPIQHQDWMSGKEFKCKVNNKDLPAPIERTISKPKGSVRAPQVYVLPPPEEEMTKKQVTLTCMVTDFMPEDIYVEWTNNGKTELNYKNTEPVLDSDGSYFMYSKLRVEKKNWVERNSYSCSVVHEGLHNHHTTKSFSRTPGK
light: NIVLTQSPASLAVSLGQRATISCRASESVESYGNSFIYWYQQKPGQAPKLLIYLASNLASGVPARFSGSGSRTDFTLTIDPVEADDAATYYCQQNNEDPYTFGGGTKLEIKRADAAPTVSIFPPSSEQLTSGGASVVCFLNNFYPKDINVKWKIDGSERQNGVLNSWTDQDSKDSTYSMSSTLTLTKDEYERHNSYTCEATHKTSTSPIVKSFNRNEC
notes: also called α2-integrin mAb from hybridoma; α2 mAb from hybridoma supernatant
